In the nanobody polyreactivity screen of Harvey et al. (2022):

Test: yeast display, Sf9 membrane polyspecificity reagent, FACS + sequencing; frameworks hold sequencing errors
Procedure, shortened: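 Nanobodies from a synthetic yeast display library (Saccharomyces cerevisiae BJ5465), induced 36–48 hours with galactose, were stained 1 hour at 4 °C with 10% biotinylated, detergent-solubilized Sf9 membrane reagent, enriched on streptavidin microbeads, then FACS-sorted. Anti-HA (expression) and streptavidin (reagent binding) fluorescence set low and high (top ~1%) gates. Polyreactivity labels come from the gate of origin. Genes were colony-PCR amplified, MiSeq 2 × 250 sequenced and filtered by CDR length.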

**Q.** For “QVQLVESGGGLVQAGGSLRLSCAASGSTYGWNAMGWSRQAPGKERELVAAISSSGGITYYADSVKGRFTISRDNAKNTVYLQMNSLKPEDTAVYYCAAERDVDWVNYWGQGTQVTVSS”, which “polyreactivity (PSR sort gate)” value is on record?
**A.** low polyreactivity

**Q.** For “QVQLVESGGGLVQAGGSLRLSCAASGSTYGYAMGWYRQAPGKEMKLVARITWRGGSTSYADSVKGRFTITRDNAKNTVYLQMNSLKPEDTAVYYCADGFYFQVYTYVRKRYYYWGQGTQVTVSS”, which “polyreactivity (PSR sort gate)” value is on record?
**A.** high polyreactivity

**Q.** For “QVQLVESGGGLVQAGGSLRLSCAASGSTYGYYTMGWYRQAPGKERELVAAITWSGGSTYYADSVKGRFTISRDIAKNTVYLQMNSLKPEDTAVYYCAADDYWTPFGYWGQCTQVTVSS”, which “polyreactivity (PSR sort gate)” value is on record?
**A.** low polyreactivity

**Q.** With “QVQLVESGGGLVQAGGSLRLSCAASGSTYRANAMGWYRQAPVKERELFASITNSGSSTYYADSVKGRFTISRDNAKNTVYLQMNSLKPEDTAVYYCNAERTIAGYYYWGQGTQVTVSS” as the sequence, how does the “polyreactivity (PSR sort gate)” value read?
**A.** low polyreactivity

**Q.** Which “polyreactivity (PSR sort gate)” value does the source give for “QVQLVESGGGLVQAGGSLRLSCAASGSTYRGYAMGWYRQAPGKERELVAAISWSGAATYYADSVKGRFTISRDNAKNTVYLQMNSLKPEDTAVYYCAKVARQNWFRYNYDYWGQGTQVTVSS” here?
**A.** high polyreactivity

**Q.** With “QVQLVESGGGLVQAGGSLRLSCAASGSTYRWYAMGWYRQAPGKEREFVAAITWSGGRTYYADSVKGRFTISRDNAKNTVYLQMNSLKTEDTAVYYCNADDYGYSFNYWGQGTQVTVSS” as the sequence, how does the “polyreactivity (PSR sort gate)” value read?
**A.** high polyreactivity

**Q.** With “QVQLVESGGGLVQAGGSLRLSCAASGSTYRYNAMGWYRQAPGKERELVAAITSGGRTNYADSVKGRFTISRDNAKITVYLQMNSLKPEDTAVYYCAARRYGRNWHYDYWGQGTQVTVSS” as the sequence, how does the “polyreactivity (PSR sort gate)” value read?
**A.** high polyreactivity

**Q.** For “QVQLVESGGGLVQAGGSLRLSCAASGSTYSWYAMGWYRQAPGKERELVASISWRGGSTYYADSVKGRFTISRDNAKNTVYLQMNSLKPEDTAVYYCAADYYWKLFHEPPAVYDYDYWGQCTQVTVSS”, which “polyreactivity (PSR sort gate)” value is on record?
**A.** low polyreactivity

**Q.** For “QVQLVESGGGLVQAGGSLRLSCAASGSTYTGYTMGWYRQAPGKERELVAAITYRGGSTYYADSVKGRFTISRDNAKNTVYLQMNSQKPEDTPVFYCAAVPEYYEYSPYDYWGQGTQVTVSS”, which “polyreactivity (PSR sort gate)” value is on record?
**A.** low polyreactivity

**Q.** For “QVQLVESGGGLVQAGGSLRLSCAASGSTYTLNAMGWYRQAPGKERELVADITSGGGGTYYADSVKGRFTISRDNAKNTVYLQMNSLKPEDTAVYYCAADDFHSLLGYWYGLFDYWGQGTQVTVSS”, which “polyreactivity (PSR sort gate)” value is on record?
**A.** low polyreactivity

**Q.** With “QVQLVESGGGLVQAGGSLRLSCAASGSTYTRYAMGWYRQATGKDRELVAAISRSGGSTYYADSVKGRFTISRDNAKNTVYLQMNSLKPEDTAVYYCRKFTLTTVTNYWGQGTQVTVSS” as the sequence, how does the “polyreactivity (PSR sort gate)” value read?
**A.** high polyreactivity

**Q.** For “QVQLVESGGGLVQAGGSLRLSCAASGSTYVYAMGLYRQAPGKERELVASISWSDSSTYYADSVKGRFTISRDNAKNTVYLQMNSLKPEDTAVYYCNADQGTRDSDYWGQGTQVTVSS”, which “polyreactivity (PSR sort gate)” value is on record?
**A.** low polyreactivity

**Q.** For “QVQLVESGGGLVQAGGSLRLSCAASGSTYYPNAMGWYRQAPGKERELVAAISRGTRTKYADSVKGRFTISRDNAKNTVYLQMNSLKPEDTAVYYCAVLTYRGRFEYWGQGTQVTVSS”, which “polyreactivity (PSR sort gate)” value is on record?
**A.** high polyreactivity

**Q.** For “QVQLVESGGGLVQAGGSLRLSCAASGSTYYYAMGWYRQAPGKEREFVAAISRDGSSTYYADSVKGRFTISRDNAKYTVYLQMNSLKPEDTAVYYCAASIIRFSTSADKLVTSRYYYWGQGTQVTVSS”, which “polyreactivity (PSR sort gate)” value is on record?
**A.** high polyreactivity

**Q.** With “QVQLVESGGGLVQAGGSLRLSCAASGTFAFYTMGWYRQAPGKERELVAAISWDGGDTYYADSVKGRFTISRDNAKNNVYLQMNSLKPEDTAVYYCAAELGYYVYGSYYSYDYCGQGTQVTVSS” as the sequence, how does the “polyreactivity (PSR sort gate)” value read?
**A.** high polyreactivity

**Q.** Which “polyreactivity (PSR sort gate)” value does the source give for “QVQLVESGGGLVQAGGSLRLSCAASGTFAGNAMGWYRQAPGKERELVAAITTGGRTYYADSVKGRFTISRDNAKNTVYLQMNSLKPEDTAVYYCAADRIRDLEFDYWGQGTQVTVSS” here?
**A.** low polyreactivity

**Q.** With “QVQLVESGGGLVQAGGSLRLSCAASGTFARYAMGWYRQAPGKERELVAAITRRGGNTYYADSVKGRFTISRDNAKNTVYLQMNSLKPEDTAVYYCARDYYYNYWWMDYWGQGTQVTVSS” as the sequence, how does the “polyreactivity (PSR sort gate)” value read?
**A.** high polyreactivity
